Molecular target: T1, SARS-CoV-2 receptor-binding domain (RBD), recombinant antigen (SARS-CoV-2, UniProt P0DTC2)
T1 construct: source: bought: Wantai BioPharm (microplates precoated with recombinant RBD)
Assay: ELISA
Conditions: both partners purified

| Binder | binding result |
| --- | --- |
| neutralizing antibody X10 (mouse monoclonal antibody) (antibody, V domains shown, also called nAb X10; cluster 2 representative; source: mouse hybridoma, ascitic fluid, purified (protein A agarose)) VH: EVQLQQSGPELVKPGASVKISCKTSGYTFTEYTLHWVKQSHGKSLEWIGGFDPNFGGATYNLKFEDKATLTVDKSSNTAYMELRSLTSEDSAVFYCARGDYGTSYAYFDFWGQGTTLTVSS VL: DIVLTQSPASLAVSLGQRAAISCRASQSVSTSSHNYVHWYQQRPGQPPKLLIKYASNLECGVPARFSGSGSGTDFTLNIHPVEEEDSAAYYCQHSWEIPYTFGGGTKLEIK | binds |
| neutralizing antibody X17 (mouse monoclonal antibody) (antibody, V domains shown, also called nAb X17; cluster 1 representative; source: mouse hybridoma, ascitic fluid, purified (protein A agarose)) VH: QVQLQQSGAELARPGASVKLSCKASGYTFTFYWMQWLKQRPGQGLEWIGAIYPGDGDTRYTQRFKDKATLTADKSSSTAYIQLSSLASEDSAVYYCAGGEYDNYGFDYWGQGTTLTVSS VL: DIQMTQTTSSLSASLGDRVTISCRASQDISNYLNWYQQKPDGTVKLLIYYTSRLHSGVPSRFSGSGSGTDYSLTISNLEQEDIATYFCQQGTTLPYTFGGGTKLEIK | binds |

Source: publication PMC9407403 (Proceedings of the National Academy of Sciences of the …, 2022)
